Legend:
Assay in all cases: cell-based or functional assay
[1] = molecular target: HIV-1 Env of pseudovirus 211-9 (HIV-1)
[2] = molecular target: HIV-1 Env of pseudovirus 249M B10 (HIV-1)
[3] = molecular target: HIV-1 Env of pseudovirus 3016.v5.c45 (HIV-1)
[4] = molecular target: HIV-1 Env of pseudovirus 3415.v1.c1 (HIV-1)
[5] = molecular target: HIV-1 Env of pseudovirus 62357_14_D3_4589 (HIV-1)
[6] = molecular target: HIV-1 Env of pseudovirus 6240_08_TA5_4622 (HIV-1)
[7] = molecular target: HIV-1 Env of pseudovirus 6480.v4.c25 (HIV-1)
[8] = molecular target: HIV-1 Env of pseudovirus 6535.3 (HIV-1)
[9] = molecular target: HIV-1 Env of pseudovirus 7030102001E5(Rev-) (HIV-1)
[10] = molecular target: HIV-1 Env of pseudovirus 89-F1_2_25 (HIV-1)
[11] = molecular target: HIV-1 Env of pseudovirus C4118.c09 (HIV-1)
[12] = molecular target: HIV-1 Env of pseudovirus CAP210.2.00.E8 (HIV-1)
[13] = molecular target: HIV-1 Env of pseudovirus CAP45.2.00.G3 (HIV-1)
[14] = molecular target: HIV-1 Env of pseudovirus CNE17 (HIV-1)
[15] = molecular target: HIV-1 Env of pseudovirus CNE21 (HIV-1)
[16] = molecular target: HIV-1 Env of pseudovirus CNE53 (HIV-1)
[17] = molecular target: HIV-1 Env of pseudovirus Ce1176_A3 (HIV-1)
[18] = molecular target: HIV-1 Env of pseudovirus Ce2010_F5 (HIV-1)
[19] = molecular target: HIV-1 Env of pseudovirus Ce704809221_1B3 (HIV-1)
[20] = molecular target: HIV-1 Env of pseudovirus HIV-0013095-2.11 (HIV-1)
[21] = molecular target: HIV-1 Env of pseudovirus HIV-16055-2.3 (HIV-1)
[22] = molecular target: HIV-1 Env of pseudovirus P1981_C5_3 (HIV-1)
[23] = molecular target: HIV-1 Env of pseudovirus Q23.17 (HIV-1)
[24] = molecular target: HIV-1 Env of pseudovirus R2184.c04 (HIV-1)
[25] = molecular target: HIV-1 Env of pseudovirus R3265.c06 (HIV-1)
[26] = molecular target: HIV-1 Env of pseudovirus SC422661.8 (HIV-1)
[27] = molecular target: HIV-1 Env of pseudovirus T250-4 (HIV-1)
[28] = molecular target: HIV-1 Env of pseudovirus T251-18 (HIV-1)
[29] = molecular target: HIV-1 Env of pseudovirus T255-34 (HIV-1)
[30] = molecular target: HIV-1 Env of pseudovirus T278-50 (HIV-1)
[31] = molecular target: HIV-1 Env of pseudovirus X2131_C1_B5 (HIV-1)
[32] = molecular target: HIV-1 Env of pseudovirus ZM197M.PB7 (HIV-1)
[33] = molecular target: HIV-1 Env of pseudovirus ZM53M.PB12 (HIV-1)

B1: N49P23 (antibody, V domains shown)
VH: QVRLVQSGAGARKTGASMKLSCSTSGYTFTTHHGHFINWVRQARGQGLEWMGWMNPMTGQMNIEGKFQGRVTLTRDIYSDTAYMEMTRLTTGDTGTYYCARGDFGQNYPFHYWGQGSLVIVSS
VL: LSALTQPASVSGSPGQSVTISCSGTNRYLVSWYQQHPDKAPKLIIYDDNKRPSGISDRFSASRPDDTASLTISGLQTGDEATYWCASYERFGGGTRLTVLS
IC50 [1]: > 50 µg/mL
IC80 [1]: > 50 µg/mL
MPI [1]: 14
IC50 [2]: > 50 µg/mL
IC80 [2]: > 50 µg/mL
MPI [2]: 20
IC50 [3]: 0.027 µg/mL
IC80 [3]: 0.092 µg/mL
MPI [3]: 100
IC50 [4]: 0.054 µg/mL
IC80 [4]: 0.19 µg/mL
MPI [4]: 100
IC50 [5]: 0.057 µg/mL
IC80 [5]: 0.76 µg/mL
MPI [5]: 95
IC50 [6]: 0.215 µg/mL
IC80 [6]: 1 µg/mL
MPI [6]: 100
IC50 [7]: > 50 µg/mL
IC80 [7]: > 50 µg/mL
MPI [7]: 29
IC50 [8]: 0.127 µg/mL
IC80 [8]: 0.855 µg/mL
MPI [8]: 100
IC50 [9]: 0.172 µg/mL
IC80 [9]: 0.797 µg/mL
MPI [9]: 100
IC50 [10]: > 50 µg/mL
IC80 [10]: > 50 µg/mL
MPI [10]: 5
IC50 [11]: 0.026 µg/mL
IC80 [11]: 0.12 µg/mL
MPI [11]: 100
IC50 [12]: > 50 µg/mL
IC80 [12]: > 50 µg/mL
MPI [12]: 2
IC50 [13]: > 50 µg/mL
IC80 [13]: > 50 µg/mL
MPI [13]: 0
IC50 [14]: 0.221 µg/mL
IC80 [14]: 0.809 µg/mL
MPI [14]: 100
IC50 [15]: > 50 µg/mL
IC80 [15]: > 50 µg/mL
MPI [15]: 0
IC50 [16]: 0.026 µg/mL
IC80 [16]: 0.095 µg/mL
MPI [16]: 100
IC50 [17]: 0.297 µg/mL
IC80 [17]: 1.38 µg/mL
MPI [17]: 100
IC50 [18]: 1.59 µg/mL
IC80 [18]: 11.6 µg/mL
MPI [18]: 91
IC50 [19]: 0.083 µg/mL
IC80 [19]: 0.643 µg/mL
MPI [19]: 100
IC50 [20]: 0.114 µg/mL
IC80 [20]: 0.899 µg/mL
MPI [20]: 96
IC50 [21]: > 50 µg/mL
IC80 [21]: > 50 µg/mL
MPI [21]: 17
IC50 [22]: 0.096 µg/mL
IC80 [22]: 0.264 µg/mL
MPI [22]: 100
IC50 [23]: 0.01 µg/mL
IC80 [23]: 0.046 µg/mL
MPI [23]: 100
IC50 [24]: 0.008 µg/mL
IC80 [24]: 0.032 µg/mL
MPI [24]: 100
IC50 [25]: > 50 µg/mL
IC80 [25]: > 50 µg/mL
MPI [25]: 0
IC50 [26]: 0.069 µg/mL
IC80 [26]: 0.245 µg/mL
MPI [26]: 100
IC50 [27]: > 50 µg/mL
IC80 [27]: > 50 µg/mL
MPI [27]: 0
IC50 [28]: > 50 µg/mL
IC80 [28]: > 50 µg/mL
MPI [28]: 18
IC50 [29]: > 50 µg/mL
IC80 [29]: > 50 µg/mL
MPI [29]: 20
IC50 [30]: > 50 µg/mL
IC80 [30]: > 50 µg/mL
MPI [30]: 22
IC50 [31]: 0.08 µg/mL
IC80 [31]: 0.28 µg/mL
MPI [31]: 100
IC50 [32]: 0.1 µg/mL
IC80 [32]: 0.385 µg/mL
MPI [32]: 100
IC50 [33]: 0.135 µg/mL
IC80 [33]: 0.651 µg/mL
MPI [33]: 100

B2: N49P22 (antibody, V domains shown)
V domain 1: HIQLLQSGPQVKKSGDTVRISCETSGYNFVDSRIHWVRQTPEKRLRWMGWINPLQGGVNYAPEFQGRIRMTRDTFIDTVYVDLSGLTPADTAYYYCARGIDGKSYPFHFWGHGTRVTVFS
V domain 2: RFALTQPASVSGSPGQTITITCAGGSVSWFHFPPGKTPRLIIYESSKRPSGVSPRFSGSQSGSTASLIISGLQSDDEGTYFCSILEFFGRGTLVTVLS
IC50 [1]: > 50 µg/mL
IC80 [1]: > 50 µg/mL
MPI [1]: 18
IC50 [2]: > 50 µg/mL
IC80 [2]: > 50 µg/mL
MPI [2]: 4
IC50 [3]: > 50 µg/mL
IC80 [3]: > 50 µg/mL
MPI [3]: 23
IC50 [4]: 0.198 µg/mL
IC80 [4]: 1.41 µg/mL
MPI [4]: 96
IC50 [5]: > 50 µg/mL
IC80 [5]: > 50 µg/mL
MPI [5]: 13
IC50 [6]: 2.33 µg/mL
IC80 [6]: 9.76 µg/mL
MPI [6]: 93
IC50 [7]: 0.809 µg/mL
IC80 [7]: 32.1 µg/mL
MPI [7]: 86
IC50 [8]: > 50 µg/mL
IC80 [8]: > 50 µg/mL
MPI [8]: 5
IC50 [9]: > 50 µg/mL
IC80 [9]: > 50 µg/mL
MPI [9]: 21
IC50 [10]: > 50 µg/mL
IC80 [10]: > 50 µg/mL
MPI [10]: 10
IC50 [11]: 1.82 µg/mL
IC80 [11]: 26.6 µg/mL
MPI [11]: 93
IC50 [12]: > 50 µg/mL
IC80 [12]: > 50 µg/mL
MPI [12]: 6
IC50 [13]: > 50 µg/mL
IC80 [13]: > 50 µg/mL
MPI [13]: 0
IC50 [14]: 46.3 µg/mL
IC80 [14]: > 50 µg/mL
MPI [14]: 53
IC50 [15]: > 50 µg/mL
IC80 [15]: > 50 µg/mL
MPI [15]: 0
IC50 [16]: 0.779 µg/mL
IC80 [16]: 5.11 µg/mL
MPI [16]: 93
IC50 [17]: > 50 µg/mL
IC80 [17]: > 50 µg/mL
MPI [17]: 23
IC50 [18]: 2.05 µg/mL
IC80 [18]: 11.7 µg/mL
MPI [18]: 93
IC50 [19]: 15.8 µg/mL
IC80 [19]: > 50 µg/mL
MPI [19]: 60
IC50 [20]: > 50 µg/mL
IC80 [20]: > 50 µg/mL
MPI [20]: 9
IC50 [21]: 4.66 µg/mL
IC80 [21]: 39.7 µg/mL
MPI [21]: 83
IC50 [22]: > 50 µg/mL
IC80 [22]: > 50 µg/mL
MPI [22]: 48
IC50 [23]: 0.321 µg/mL
IC80 [23]: 2.4 µg/mL
MPI [23]: 96
IC50 [24]: 0.077 µg/mL
IC80 [24]: 0.342 µg/mL
MPI [24]: 100
IC50 [25]: 3.58 µg/mL
IC80 [25]: > 50 µg/mL
MPI [25]: 67
IC50 [26]: 0.12 µg/mL
IC80 [26]: 0.544 µg/mL
MPI [26]: 100
IC50 [27]: > 50 µg/mL
IC80 [27]: > 50 µg/mL
MPI [27]: 5
IC50 [28]: 0.58 µg/mL
IC80 [28]: 3.09 µg/mL
MPI [28]: 99
IC50 [29]: 38.8 µg/mL
IC80 [29]: > 50 µg/mL
MPI [29]: 55
IC50 [30]: > 50 µg/mL
IC80 [30]: > 50 µg/mL
MPI [30]: 25
IC50 [31]: > 50 µg/mL
IC80 [31]: > 50 µg/mL
MPI [31]: 44
IC50 [32]: 2.58 µg/mL
IC80 [32]: 25.1 µg/mL
MPI [32]: 84
IC50 [33]: 1.2 µg/mL
IC80 [33]: 11.8 µg/mL
MPI [33]: 91
